Results reported in the supplement of paper PMC9170038.

Columns and labels:
MS2 coat protein [1] = assay: apparent KD of MS2 coat protein, switch ON state; designed switch direction (-1 OFF switch, 1 ON switch): 1; higher = weaker reporter binding; conditions: FMN input: 0 or 200 uM; Eterna round: R93 (includes R88 designs)
Summary of the method: (§1)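 Titration buffer: 100 mM Tris-HCl pH 7.5, 80 mM KCl, 4 mM MgCl2, without or with constant ligand. Designed RNA switches transcribed on-chip from Illumina sequencing clusters received SNAP-549-labelled MS2 coat protein in twofold steps from 0.7 or 1.5 nM to 3 µM. Apparent KD is the median per design of fits to normalised cluster binding curves.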

MS2 coat protein [2] = assay: apparent KD of MS2 coat protein, switch OFF state (with FMN for OFF switches, without FMN for ON switches); designed switch direction (-1 OFF switch, 1 ON switch): 1; higher = weaker reporter binding; conditions: FMN input: 0 or 200 uM; Eterna round: R93 (includes R88 designs)
Summary of the method: as §1

Sequence | apparent KD of MS2 coat protein (MS2 coat protein [1]) | apparent KD of MS2 coat protein (MS2 coat protein [2])
AGAAGACAUGAGGAUCACCCAUGUGGGAAUAUGGGAGGAUAUACAAAGACGAGAGUCAGAGUAGAAGGCCUAGGCC [salish99-ss1-110] | 0.0498 µM | 0.131 µM
AGCCGCACUAUACAGGAUAUCACAAUAUCGACAUGAGGAUCACCCAUGUGACUGGCACCAGUCGGUGAGAAGGGUGAAGUGCGGC [Raarati] | 0.0906 µM | 0.421 µM
AGGAAACAUGAGGAUCACCCAUGUAAAAAAGUGGGAGGAUAUACUAGAAGAAACAAAAUAGUAGAAGGCCUAAAAA [75%, Ex sub1, 32] | 0.00999 µM | 0.108 µM
AGGAAACAUGAGGAUCACCCAUGUAAAAAUAUGGAAGGAUAUGGAAACACGAAAGUGAAACCAGAAGGUCCGAAAA [77%, Mat - Mod of Eli, 19] | 0.0131 µM | 0.0231 µM
AGGAAACAUGAGGAUCACCCAUGUAAAAAUAUGGGAGGAUAUGCGAAAAGAAACAAAGAAGCAGAAGGCCUAAGAA [75%, Ex5 sub 1, 7] | 0.0119 µM | 0.155 µM
AGGAAACAUGAGGAUCACCCAUGUAGAAAUAUGGGAGGAUAUCGGAAUAAAAUAAAGAAACGAGAAGGCCUAAAAG [59%, Flamingo, 3] | 0.0388 µM | 0.324 µM
AGGAGACAUGAGGAUCACCCAUGUGAGAAGAGGCGAGGAUAUCGAAAAAAAAAAAAAAAACGAGAAGGCGCGAGAA [SameState1] | 0.0354 µM | 0.0582 µM
AGGAGACAUGAGGAUCACCCAUGUGAGAAGAGGCGAGGAUAUCGAAAAAAAAAAAAAAAACGAGAAGGCGCGAGAA [salish99-SS1-002] | 0.0354 µM | 0.0582 µM
AGGAGACAUGAGGAUCACCCAUGUGAGAAGAGGCGAGGAUAUCGAAAGAAAGAAGAGAAACGAGAAGGCGCGAGUU [salish99-SS1-022] | 0.0255 µM | 0.0338 µM
AGGCAACAUGAGGAUCACCCAUGUCGCAACAAUCAAGGAUAUGGGAGAAAUAAGAAAAUACCAGAAGGUGAAAUAA [Telelabe] | 0.0607 µM | 0.092 µM
AUAAAAACGUAUGAGGAUAUCCAAAAUAAAACAUGAGGAUCACCCAUGUGAAUAAAAUAACAAUGGGAGAAGGCAUACGUAUCAU [SS 2 M 53] | 0.0125 µM | 0.0288 µM
AUAAAACAUGAGGAUCACCCAUGUAGAAAUAUGGGAGGAUAUACAAAGACGAAAGUCGAAGUAGAAGGCCUAAAAG [Mat - Same State 1 - Meechl mod - D117] | 0.0274 µM | 0.0683 µM
AUAAAACAUGAGGAUCACCCAUGUAGAAAUAUGGGAGGAUAUACUAGAUCGAAAGAUCUAGUAGAAGGCCUUAAAG [JL Mod of Eli 3] | 0.0317 µM | 0.0526 µM
AUAAAAUAAAAUGAGGAUAUCUAUAAUAAAACAUGAGGAUCACCCAUGUUUAAACAAAGAUCAUGGGAGAAGGCAUAAAAUAAAU [SS2 M 40] | 0.0159 µM | 0.014 µM
AUAAAAUACUGUGAGGAUAUCCAUAAUAAAACAUGAGGAUCACCCAUGUGUAGAUAAUAAUAAUGGGAGAAGGCACAUAAUAAUA [Mat - Same state - Mayanna Mod - D101] | 0.0157 µM | 0.041 µM
AUAAAUAAAAGAGAGGAUAUCCAAAAGAAAACAUGAGGAUCACCCAUGUGAAAGAAAAUAAAAUGGGAGAAGGCUCACAAUAAUA [Topaz 32] | 0.023 µM | 0.026 µM
AUAAAUAAAAUAGAGGAUAUCCAAAACAAAACAUGAGGAUCACCCAUGUAAAAGAAAAUAAAAUGGGAGAAGGCUACAAAUAAAU [SS2 M 3] | 0.0201 µM | 0.0305 µM
AUAAAUAAAAUCGAGGAUAUCCAAUAAUAAACAUGAGGAUCACCCAUGUAAAAGAAAAUAUAAUGGGAGAAGGCGAAUAAUAAAU [JR_SS002_Sub1701] | 0.0163 µM | 0.02 µM
AUAACACAUGAGGAUCACCCAUGUAGAAAUAAGGGAGGAUAUACAAAGACGAAAGUCAAAGUAGAAGGCUCAAAAG [76%, Meechl 4] | 0.0148 µM | 0.0186 µM
AUAGGGACGUCGGAGGAUAUUCGAUGUAAAACAUGAGGAUCACCCAUGUGAAUAAAAUAAACAUGGAAGAAGGCCGACGUGCCAU [SS 2 M 54] | 0.0103 µM | 0.0133 µM
AUAUAAAUAAGGUAGGAUAUACUAAAGUAAACAUGAGGAUCACCCAUGUAAAGAAAGAAACUCAUGUAGAAGGACCAUAUAUAUA [viburnum 1] | 0.0244 µM | 0.264 µM
AUAUAUAUAAGACAGGAUAUCCGAAAGUAAACAUGAGGAUCACCCAUGUAAAGAAAGAAACUCAUGGAGAAGGGUCAAUAUAUAU [Mat - Same State 2 - Tesla mod - D84] | 0.0224 µM | 0.0656 µM

Sequence | apparent KD of MS2 coat protein (MS2 coat protein [1]) | apparent KD of MS2 coat protein (MS2 coat protein [2])
AUAUAUAUAAGGUAGGAUAUCCAAAAGUAAACAUGAGGAUCACCCAUGUAAAAAAUCUAAAAAUGGGAGAAGGACCAUAUAUAUA | 0.019 µM | 0.0371 µM
AUAUAUAUAAGGUAGGAUAUCCAAAAGUCCACAUGAGGAUCACCCAUGUAAAGAAAGAAAAAAUGGGAGAAGGACCAUAUAUAUA [77%, More Tesla, 5] | 0.0187 µM | 0.0421 µM
AUCUAACAUGAGGAUCACCCAUGUAUUCAAAAACAAGGAUAUAUAACAAACAAACAACAAAUAGAAGGUGUAAAUA [Default title] | 0.019 µM | 0.0196 µM
AUUUUACAUGAGGAUCACCCAUGUUUUGGUGGAUCAGGAUAUAAAUUGAAUGAGUUUUAGUUAGAAGGGAUAUAUA [JR_SS001_Sub505] | 0.0784 µM | 0.054 µM
CAACAGAGAGGACAGGAUAUGUCGUGAUAAACAUGAGGAUCACCCAUGUGAGACAUCACGUAGUCGCAGAAGGGUCCCGUCUUAC [Esleerandi] | 0.0153 µM | 0.0188 µM
CAUCAUGCGCCUAAGGAUAUGUCUCACAAGACAUGAGGAUCACCCAUGUAGAAUAAAUAAAUGAUGCAGAAGGUGGAGUGCAUGC [Rierre] | 0.0721 µM | 0.334 µM
CAUCAUGCGCCUAAGGAUAUGUCUCACAAGACAUGAGGAUCACCCAUGUAGACAAAAUAAGCGAUGCAGAAGGUGGAGCGCAUGC [Rasoer] | 0.0831 µM | 0.348 µM
CAUCAUGCGCCUAAGGAUAUGUCUCACAAGACAUGAGGAUCACCCAUGUAUAAUAAAUAAAUGAUGCAGAAGGUGGAGUGCAUGC [Latibe] | 0.0877 µM | 0.245 µM
CCCAAUGCAACGAAGGAUAUCCGUCAUGCCACAUGAGGAUCACCCAUGUACUGGCGGCACAAGACGGAGAAGGUCGGGUGCUGUG [Quenrean] | 0.0094 µM | 0.011 µM
CCGAUGGUAUACUAGGAUAUGGGCGCCCUUACAUGAGGAUCACCCAUGUUAUCACAAAGCCGCGGCCAGAAGGAGUUCAUGGGAG [Tieronsove] | 0.0947 µM | 0.122 µM
CCUAGACAUGAGGAUCACCCAUGUCGAACAAACAAAGGAUAUGGGAGCCGAAGAAGGCUAUUAGAAGGUUGCAAAU [Aisedbi] | 0.0294 µM | 0.034 µM
CGAAAGGAGAGAGAGGAUAUCCAAAGGAAAACAUGAGGAUCACCCAUGUAGAAGGUAGGAGAUUGGGAGAAGGCUCAAGAGAGCU [salish99-ss2-152] | 0.0305 µM | 0.0326 µM
CGAAAGGAGAGAGAGGAUAUCCAAAGGAAAACAUGAGGAUCACCCAUGUAGAAGGUAGGAGAUUGGGAGAAGGCUCAAGAGAUAU [salish99-ss2-153] | 0.02 µM | 0.0442 µM
CGCAAACAUGAGGAUCACCCAUGUCAAUGUGGUCAAGGAUAUGGGUUCCUAAAUGGAACACCAGAAGGUGAAAAGA [Anesatve] | 0.02 µM | 0.0545 µM
CGGGCCCGGGCGCAGGAUAUCUGAAAAAAAACAUGAGGAUCACCCAUGUGUGGGAAAAAAAAAAAAGAGAAGGGCGCCCGGGCCC [Natural State 2 -38.15 -4 kcal] | 0.0294 µM | 0.0486 µM
GAAAAACAUGAGGAUCACCCAUGUAAAAAUAUGGGAGGAUAUUGAAACACGAAAGUCAAACAAGAAGGCCUAAAAG [Garnet 3] | 0.0441 µM | 0.147 µM
GAAAAACAUGAGGAUCACCCAUGUAGAAACAUGGGAGGAUAUACAAAGACGAAAGUCAAAGUAGAAGGCCUAAAAA [Mat - Same State 1 - Mod - D160] | 0.149 µM | 0.851 µM
GAAAAACAUGAGGAUCACCCAUGUAGAAAUAUGGGAGGAUAUACAAAGACGAAAGUCAAAGUAGAAGGCCCAAAAG [Starry Same State 1.1 (mat747 round 1 mod)] | 0.0241 µM | 0.0388 µM
GAAAAACAUGAGGAUCACCCAUGUAGAAAUAUGGGAGGAUAUACAAAGUGGAAAGACAAAGUAGAAGGCCUAAAAG [Garnet 25] | 0.0356 µM | 0.309 µM
GAAAAACAUGAGGAUCACCCAUGUAGAGAUAUGGGAGGAUAUACGAAGACGAAAGACGAGGUAGAAGGCCUAAAAG [Garnet 57] | 0.0661 µM | 0.218 µM
GAAAAACAUGAGGAUCACCCAUGUAGAGAUAUGGGAGGAUAUACGAAGACGAAAGUCGAGGUAGAAGGCCUAAAAG [Garnet 56] | 0.0277 µM | 0.108 µM
GAAAAACAUGAGGAUCACCCAUGUGAGAACAUGGGAGGAUAUACGAGGACGAAAGUCAAAGUAGAAGGCCUAAGAG [Garnet 86] | 0.164 µM | 0.03 µM
